Reference: patent publication US20250027955A1, “ETHYLENE RECEPTORS AND BINDING DOMAINS WITH MODIFIED BINDING KINETICS FOR ETHYLENE” (Trustees of Dartmouth College, priority 2022, published 2025)

Legend:
[1] = Saturable [14C]ethylene binding to yeast transgenically expressing ETR1; design: species or system Saccharomyces cerevisiae; details: 0.21 μL L^−1 [14C]ethylene; % of wild-type binding
Excerpt: Saturable ethylene binding of the ETR1 Asp25 mutants was examined by heterologous expression in yeast, with binding to [^14C]ethylene determined in the presence or absence of excess [^12C]ethylene (FIG. 2C). […] This included the ETR1^D25A mutant, consistent with previous observations, as well as for the ETR1^D25N and ETR1^D25Q mutants (FIG. 2C). Results from the ethylene binding assay are therefore consistent with the negative charge at D25 playing a significant role in mediating high-affinity ethylene binding.
[^14C]ethylene (specific activity=116 mCi/mmol) was obtained from ViTrax Radiochemicals (Placentia, CA) and trapped as the mercuric perchlorate complex as described. For ethylene binding assays in yeast, ETR1 was expressed in the yeast Saccharomyces cerevisiae (strain FY834) using the vector pYcDE-2 and a constitutive ADC1 promoter. The yeast growth media was supplemented with 40 μg L^−1 copper sulfate. Saturable ethylene binding to yeast was determined by analyzing binding of 0.3 g yeast per sample to 0.21 μL L^−1 [^14C]ethylene, in the presence or absence of excess [^12C]ethylene.

[2] = tested on: Arabidopsis seedlings, etr1 etr2 ein4 background; assay: Triple-response hypocotyl growth assay of dark-grown seedlings expressing ETR1 transgenes; type: in vivo; details: for hypocotyl growth response to ethylene: dark-grown seedlings, 0 or 1 μL L^−1 ethylene
Protocol: Functionality of the ETR1 Asp25 mutants was tested by transgenic expression in the etr1 etr2 ein4 Arabidopsis background.
Applicant can thus exploit the triple mutant to assess the ability of the ETR1 transgenes to rescue growth in the absence of ethylene as well as their ability to mediate a response to ethylene. Such an analysis indicates whether the encoded receptors are able to assume the ‘on’ conformation that represses the ethylene response in air, as well as the ‘off’ conformation that occurs in response to ethylene binding.
All Arabidopsis lines were of the Columbia (Col-0) accession. The etr1-1 and etr1-6 etr2-3 ein4-4 mutant lines have been described. Analysis of the triple response of dark-grown Arabidopsis seedlings to ethylene was performed as described previously. Briefly, seedlings were grown at 22° C. on vertically oriented plates on half-strength Murashige and Skoog basal medium with Gamborg's vitamins (pH 5.75; Sigma), 0.8% (w/v) agar, and 5 μM aminoethoxyvinylglycine (AVG) to inhibit ethylene biosynthesis. The stratified seed was exposed to light for 8 hr and then moved to the dark in the presence or absence of ethylene, with analysis of the seedling growth being performed following 4 days total growth. For short-term kinetic analysis of dark-grown seedlings, time-lapse imaging and growth rate analysis of hypocotyls were carried out as described previously.

| Molecule | ethylene binding relative to ETR1^wt [1] | hypocotyl growth response to ethylene [2] | rescue of growth of etr1 etr2 ein4 triple mutant in air ([2]; absence of ethylene, hypocotyl and adult shoot growth) |
| --- | --- | --- | --- |
| ETR1^K91R: ETR1 with basic Lys91 replaced by Arg (protein, UniProt P49333 1-738, looked up, variant K91R) Ethylene receptor 1: MEVCNCIEPQWPADELLMKYQYISDFFIAIAYFSIPLELIYFVKKSAVFPYRWVLVQFGAFIVLCGATHLINLWTFTTHSRTVALVMTTARVLTAVVSCATALMLVHIIPDLLSVKTRELFLKNKAAELDREMGLIRTQEETGRHVRMLTHEIRSTLDRHTILKTTLVELGRTLALEECALWMPTRTGLELQLSYTLRHQHPVEYTVPIQLPVINQVFGTSRAVKISPNSPVARLRPVSGKYMLGEVVAVRVPLLHLSNFQINDWPELSTKRYALMVLMLPSDSARQWHVHELELVEVVADQVAVALSHAAILEESMRARDLLMEQNVALDLARREAETAIRARNDFLAVMNHEMRTPMHAIIALSSLLQETELTPEQRLMVETILKSSNLLATLMNDVLDLSRLEDGSLQLELGTFNLHTLFREVLNLIKPIAVVKKLPITLNLAPDLPEFVVGDEKRLMQIILNIVGNAVKFSKQGSISVTALVTKSDTRAADFFVVPTGSHFYLRVKVKDSGAGINPQDIPKIFTKFAQTQSLATRSSGGSGLGLAISKRFVNLMEGNIWIESDGLGKGCTAIFDVKLGISERSNESKQSGIPKVPAIPRHSNFTGLKVLVMDENGVSRMVTKGLLVHLGCEVTTVSSNEECLRVVSHEHKVVFMDVCMPGVENYQIALRIHEKFTKQRHQRPLLVALSGNTDKSTKEKCMSFGLDGVLLKPVSLDNIRDVLSDLLEPRVLYEGM | 63% | conferred ethylene hyposensitivity | – |
| ETR1^K91M: ETR1 with Lys91 replaced by a nonpolar sidechain of similar size (Met) (protein, UniProt P49333 1-738, looked up, variant K91M) Ethylene receptor 1: MEVCNCIEPQWPADELLMKYQYISDFFIAIAYFSIPLELIYFVKKSAVFPYRWVLVQFGAFIVLCGATHLINLWTFTTHSRTVALVMTTAMVLTAVVSCATALMLVHIIPDLLSVKTRELFLKNKAAELDREMGLIRTQEETGRHVRMLTHEIRSTLDRHTILKTTLVELGRTLALEECALWMPTRTGLELQLSYTLRHQHPVEYTVPIQLPVINQVFGTSRAVKISPNSPVARLRPVSGKYMLGEVVAVRVPLLHLSNFQINDWPELSTKRYALMVLMLPSDSARQWHVHELELVEVVADQVAVALSHAAILEESMRARDLLMEQNVALDLARREAETAIRARNDFLAVMNHEMRTPMHAIIALSSLLQETELTPEQRLMVETILKSSNLLATLMNDVLDLSRLEDGSLQLELGTFNLHTLFREVLNLIKPIAVVKKLPITLNLAPDLPEFVVGDEKRLMQIILNIVGNAVKFSKQGSISVTALVTKSDTRAADFFVVPTGSHFYLRVKVKDSGAGINPQDIPKIFTKFAQTQSLATRSSGGSGLGLAISKRFVNLMEGNIWIESDGLGKGCTAIFDVKLGISERSNESKQSGIPKVPAIPRHSNFTGLKVLVMDENGVSRMVTKGLLVHLGCEVTTVSSNEECLRVVSHEHKVVFMDVCMPGVENYQIALRIHEKFTKQRHQRPLLVALSGNTDKSTKEKCMSFGLDGVLLKPVSLDNIRDVLSDLLEPRVLYEGM | approximately 6% | partial ethylene hyposensitivity | failed to rescue seedling growth efficiently |
| ETR1^D25N,K91M: ETR1 combining Asp25Asn with K91M (protein, UniProt P49333 1-738, looked up, variant D25N K91M) Ethylene receptor 1: MEVCNCIEPQWPADELLMKYQYISNFFIAIAYFSIPLELIYFVKKSAVFPYRWVLVQFGAFIVLCGATHLINLWTFTTHSRTVALVMTTAMVLTAVVSCATALMLVHIIPDLLSVKTRELFLKNKAAELDREMGLIRTQEETGRHVRMLTHEIRSTLDRHTILKTTLVELGRTLALEECALWMPTRTGLELQLSYTLRHQHPVEYTVPIQLPVINQVFGTSRAVKISPNSPVARLRPVSGKYMLGEVVAVRVPLLHLSNFQINDWPELSTKRYALMVLMLPSDSARQWHVHELELVEVVADQVAVALSHAAILEESMRARDLLMEQNVALDLARREAETAIRARNDFLAVMNHEMRTPMHAIIALSSLLQETELTPEQRLMVETILKSSNLLATLMNDVLDLSRLEDGSLQLELGTFNLHTLFREVLNLIKPIAVVKKLPITLNLAPDLPEFVVGDEKRLMQIILNIVGNAVKFSKQGSISVTALVTKSDTRAADFFVVPTGSHFYLRVKVKDSGAGINPQDIPKIFTKFAQTQSLATRSSGGSGLGLAISKRFVNLMEGNIWIESDGLGKGCTAIFDVKLGISERSNESKQSGIPKVPAIPRHSNFTGLKVLVMDENGVSRMVTKGLLVHLGCEVTTVSSNEECLRVVSHEHKVVFMDVCMPGVENYQIALRIHEKFTKQRHQRPLLVALSGNTDKSTKEKCMSFGLDGVLLKPVSLDNIRDVLSDLLEPRVLYEGM | – | further reduction in the ability to rescue seedling growth and respond to ethylene | – |
| ETR1^D25N,K91R: ETR1 combining Asp25Asn with K91R (protein, UniProt P49333 1-738, looked up, variant D25N K91R) Ethylene receptor 1: MEVCNCIEPQWPADELLMKYQYISNFFIAIAYFSIPLELIYFVKKSAVFPYRWVLVQFGAFIVLCGATHLINLWTFTTHSRTVALVMTTARVLTAVVSCATALMLVHIIPDLLSVKTRELFLKNKAAELDREMGLIRTQEETGRHVRMLTHEIRSTLDRHTILKTTLVELGRTLALEECALWMPTRTGLELQLSYTLRHQHPVEYTVPIQLPVINQVFGTSRAVKISPNSPVARLRPVSGKYMLGEVVAVRVPLLHLSNFQINDWPELSTKRYALMVLMLPSDSARQWHVHELELVEVVADQVAVALSHAAILEESMRARDLLMEQNVALDLARREAETAIRARNDFLAVMNHEMRTPMHAIIALSSLLQETELTPEQRLMVETILKSSNLLATLMNDVLDLSRLEDGSLQLELGTFNLHTLFREVLNLIKPIAVVKKLPITLNLAPDLPEFVVGDEKRLMQIILNIVGNAVKFSKQGSISVTALVTKSDTRAADFFVVPTGSHFYLRVKVKDSGAGINPQDIPKIFTKFAQTQSLATRSSGGSGLGLAISKRFVNLMEGNIWIESDGLGKGCTAIFDVKLGISERSNESKQSGIPKVPAIPRHSNFTGLKVLVMDENGVSRMVTKGLLVHLGCEVTTVSSNEECLRVVSHEHKVVFMDVCMPGVENYQIALRIHEKFTKQRHQRPLLVALSGNTDKSTKEKCMSFGLDGVLLKPVSLDNIRDVLSDLLEPRVLYEGM | – | more insensitive to ethylene than the ETR1^K91R mutant | – |
| ETR1^D25N,K91A: ETR1 combining Asp25Asn with K91A (protein, UniProt P49333 1-738, looked up, variant D25N K91A) Ethylene receptor 1: MEVCNCIEPQWPADELLMKYQYISNFFIAIAYFSIPLELIYFVKKSAVFPYRWVLVQFGAFIVLCGATHLINLWTFTTHSRTVALVMTTAAVLTAVVSCATALMLVHIIPDLLSVKTRELFLKNKAAELDREMGLIRTQEETGRHVRMLTHEIRSTLDRHTILKTTLVELGRTLALEECALWMPTRTGLELQLSYTLRHQHPVEYTVPIQLPVINQVFGTSRAVKISPNSPVARLRPVSGKYMLGEVVAVRVPLLHLSNFQINDWPELSTKRYALMVLMLPSDSARQWHVHELELVEVVADQVAVALSHAAILEESMRARDLLMEQNVALDLARREAETAIRARNDFLAVMNHEMRTPMHAIIALSSLLQETELTPEQRLMVETILKSSNLLATLMNDVLDLSRLEDGSLQLELGTFNLHTLFREVLNLIKPIAVVKKLPITLNLAPDLPEFVVGDEKRLMQIILNIVGNAVKFSKQGSISVTALVTKSDTRAADFFVVPTGSHFYLRVKVKDSGAGINPQDIPKIFTKFAQTQSLATRSSGGSGLGLAISKRFVNLMEGNIWIESDGLGKGCTAIFDVKLGISERSNESKQSGIPKVPAIPRHSNFTGLKVLVMDENGVSRMVTKGLLVHLGCEVTTVSSNEECLRVVSHEHKVVFMDVCMPGVENYQIALRIHEKFTKQRHQRPLLVALSGNTDKSTKEKCMSFGLDGVLLKPVSLDNIRDVLSDLLEPRVLYEGM | – | all ethylene insensitive | – |
